# Measurements: publication PMC6404062
# B1: Clone 44 heptapeptide SHLSKNF, displayed on M13 phage (peptide)
# peptide: SHLSKNF
# B2: Clone 34 heptapeptide QPQMSHM, displayed on M13 phage (peptide)
# peptide: QPQMSHM
# B3: Clone 3 heptapeptide NVQYFAV, displayed on M13 phage (peptide)
# peptide: NVQYFAV
# B4: Clone 40 heptapeptide NCHKCWN, displayed on M13 phage (peptide)
# peptide: NCHKCWN
# B5: Clone 36 heptapeptide TNIESLK, displayed on M13 phage (peptide)
# peptide: TNIESLK
# B6: Clone 5 heptapeptide ASHTQKS, displayed on M13 phage (peptide)
# peptide: ASHTQKS
# B7: Clone 1 heptapeptide CPSTHWK, displayed on M13 phage (peptide)
# peptide: CPSTHWK
# Target: Human IgG4 monoclonal antibody (human)
# Assay: ELISA; hIgG4 coated on wells as in the screening; 2.5 × 10^11 phage particles in 100 µL per well in DMEM with 5% FCS and 5 g/L ovalbumin, in triplicate; original phage library assayed beside the clones
Binder,fold absorbance over the original phage library,ELISA signal,fold ELISA signal over the original phage library
B1,> 2.5 fold,,
B2,> 2.5 fold,,
B3,> 2.5 fold,> 0.85 AU,> 4 fold
B4,> 2.5 fold,> 0.85 AU,> 4 fold
B5,> 2.5 fold,,
B6,> 2.5 fold,,
B7,> 2.5 fold,,

# Target: Human IgG4 monoclonal antibody (human)
# Assay: ELISA; data not shown: the same plates in DMEM with 5% FCS and 5 g/L ovalbumin, hIgG4-coated wells compared with control wells coated with 200 µL of 100 µg/mL lactoferrin in TBS
row,Binder,fold absorbance over lactoferrin-coated control wells
1,B1,> 3 fold
2,B2,> 3 fold
3,B3,> 3 fold
4,B4,> 3 fold
5,B5,> 3 fold
6,B6,> 3 fold
7,B7,> 3 fold
